The target of assay [1] is T1, human ADAMTS5 (human, UniProt Q9UNA0 262-622, limits assumed).
T1 construct: Octet and ELISA used 'recombinant human ADAMTS5'; also called recombinant human ADAMTS5; ADAMTS5 (R&D Systems 2198-AD)
T1 sequence: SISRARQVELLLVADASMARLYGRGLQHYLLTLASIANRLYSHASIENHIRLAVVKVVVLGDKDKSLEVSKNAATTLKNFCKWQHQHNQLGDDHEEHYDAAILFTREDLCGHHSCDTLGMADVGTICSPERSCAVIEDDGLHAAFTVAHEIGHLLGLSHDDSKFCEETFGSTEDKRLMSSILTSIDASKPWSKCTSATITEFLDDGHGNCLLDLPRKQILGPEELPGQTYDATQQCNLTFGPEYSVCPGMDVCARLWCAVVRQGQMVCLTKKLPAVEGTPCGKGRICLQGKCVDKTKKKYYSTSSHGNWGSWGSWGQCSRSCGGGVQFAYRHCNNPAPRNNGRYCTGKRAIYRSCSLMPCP
Kind of assay: Octet QK, antigen down, incl avidity. (In general: Biolayer interferometry detects binding as a change in optical thickness at a sensor tip.)

Assay [2] concerns the target T1, human ADAMTS5. Kind of assay: Biacore, mAb down, no avidity. On the technique in general: In SPR one partner is held on a chip, and binding of the other changes the refractive index at the surface.
In a further assay the target is T2, Human MMP1 (human, UniProt P03956 20-469, limits assumed).
T2 sequence (looked up): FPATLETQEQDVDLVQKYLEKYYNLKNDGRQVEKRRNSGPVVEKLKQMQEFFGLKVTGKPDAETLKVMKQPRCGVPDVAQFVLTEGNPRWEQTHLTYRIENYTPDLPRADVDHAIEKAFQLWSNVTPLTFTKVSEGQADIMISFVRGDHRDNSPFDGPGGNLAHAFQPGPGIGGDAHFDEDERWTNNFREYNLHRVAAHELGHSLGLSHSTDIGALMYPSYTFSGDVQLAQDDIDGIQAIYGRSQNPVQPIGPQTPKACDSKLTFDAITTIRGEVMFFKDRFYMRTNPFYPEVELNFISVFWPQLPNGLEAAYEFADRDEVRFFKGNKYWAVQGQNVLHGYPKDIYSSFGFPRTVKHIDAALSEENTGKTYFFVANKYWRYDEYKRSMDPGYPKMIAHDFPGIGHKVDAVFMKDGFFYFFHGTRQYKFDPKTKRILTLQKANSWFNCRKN
The assay is described as follows: celTRF and Octet QK cross-reactivity.

The next assay has as its target T3, Human ADAMTS1 (human, UniProt Q9UHI8 253-967, limits assumed).
T3 sequence (looked up): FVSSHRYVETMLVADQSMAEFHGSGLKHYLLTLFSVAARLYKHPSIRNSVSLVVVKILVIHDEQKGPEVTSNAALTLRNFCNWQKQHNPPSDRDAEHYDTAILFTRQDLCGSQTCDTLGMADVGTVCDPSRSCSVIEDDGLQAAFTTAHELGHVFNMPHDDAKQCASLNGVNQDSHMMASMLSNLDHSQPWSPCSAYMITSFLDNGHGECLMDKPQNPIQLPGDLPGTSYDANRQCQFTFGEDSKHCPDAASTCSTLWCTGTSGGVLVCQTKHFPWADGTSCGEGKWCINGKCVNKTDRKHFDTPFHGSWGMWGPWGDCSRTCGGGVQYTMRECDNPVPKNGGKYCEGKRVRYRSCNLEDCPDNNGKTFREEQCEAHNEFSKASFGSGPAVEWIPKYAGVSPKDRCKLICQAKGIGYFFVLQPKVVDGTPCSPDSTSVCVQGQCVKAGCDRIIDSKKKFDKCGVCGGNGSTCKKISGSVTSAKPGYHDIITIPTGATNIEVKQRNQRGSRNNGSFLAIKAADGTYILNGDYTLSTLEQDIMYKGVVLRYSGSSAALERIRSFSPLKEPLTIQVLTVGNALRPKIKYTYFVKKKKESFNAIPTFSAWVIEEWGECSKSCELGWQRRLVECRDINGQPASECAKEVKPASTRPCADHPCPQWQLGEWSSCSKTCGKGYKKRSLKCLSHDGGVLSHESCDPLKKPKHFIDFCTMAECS
The assay is described as follows: celTRF and Octet QK cross-reactivity.

The target of the next assay is T4, Human ADAMTS13 (human, UniProt Q76LX8 75-685, limits assumed).
T4 sequence (looked up): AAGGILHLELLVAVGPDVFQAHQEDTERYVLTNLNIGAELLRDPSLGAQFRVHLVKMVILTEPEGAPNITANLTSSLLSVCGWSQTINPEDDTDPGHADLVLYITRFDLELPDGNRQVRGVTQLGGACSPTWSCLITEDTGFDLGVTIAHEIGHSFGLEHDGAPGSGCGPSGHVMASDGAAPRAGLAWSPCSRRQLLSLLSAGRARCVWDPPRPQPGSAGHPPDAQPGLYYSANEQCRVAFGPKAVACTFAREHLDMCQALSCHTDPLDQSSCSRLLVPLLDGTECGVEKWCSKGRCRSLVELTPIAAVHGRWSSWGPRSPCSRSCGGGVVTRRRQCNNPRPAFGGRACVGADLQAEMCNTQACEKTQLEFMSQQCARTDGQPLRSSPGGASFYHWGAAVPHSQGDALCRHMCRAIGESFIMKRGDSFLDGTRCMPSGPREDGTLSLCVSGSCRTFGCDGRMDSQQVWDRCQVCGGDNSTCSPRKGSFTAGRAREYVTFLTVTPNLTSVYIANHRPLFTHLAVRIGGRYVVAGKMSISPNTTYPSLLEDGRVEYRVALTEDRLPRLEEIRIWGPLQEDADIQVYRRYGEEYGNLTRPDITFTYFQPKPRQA
Kind of assay: celTRF and Octet QK cross-reactivity.

The target in another assay is Human MMP3 (human, UniProt P08254 18-477, limits assumed). Kind of assay: celTRF and Octet QK cross-reactivity.
For the next assay, the target named is Human MMP13 (human, UniProt P45452 20-471, limits assumed). Kind of assay: celTRF and Octet QK cross-reactivity.
A further assay concerns the target Human MMP9 (human, UniProt P14780 20-707, limits assumed). Kind of assay: celTRF and Octet QK cross-reactivity.
Another assay deals with T5, Human ADAMTS4 (human, UniProt O75173 213-685, limits assumed).
T5 construct: also called aggrecanase-1
T5 sequence: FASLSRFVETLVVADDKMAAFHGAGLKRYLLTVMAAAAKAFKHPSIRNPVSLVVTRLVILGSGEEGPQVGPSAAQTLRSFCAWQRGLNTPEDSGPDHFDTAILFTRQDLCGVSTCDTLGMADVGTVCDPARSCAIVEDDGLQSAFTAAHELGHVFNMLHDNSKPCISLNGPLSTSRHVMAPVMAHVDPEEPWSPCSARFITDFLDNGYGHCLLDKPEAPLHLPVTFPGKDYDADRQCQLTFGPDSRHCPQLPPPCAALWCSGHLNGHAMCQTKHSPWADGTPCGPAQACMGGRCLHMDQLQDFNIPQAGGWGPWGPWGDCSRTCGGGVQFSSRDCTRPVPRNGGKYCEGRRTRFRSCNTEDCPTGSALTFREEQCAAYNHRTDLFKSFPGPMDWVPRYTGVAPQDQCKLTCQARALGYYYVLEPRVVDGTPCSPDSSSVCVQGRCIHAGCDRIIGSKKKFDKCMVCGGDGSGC
Kind of assay: celTRF and Octet QK cross-reactivity.

In assay [3] the target is T1, human ADAMTS5. The assay is described as follows: Octet QK, purified murine mAb.
The target in assay [4] is T1, human ADAMTS5. The assay is described as follows: cell-based or functional assay.
For assay [5], the target named is T1, human ADAMTS5. The assay is described as follows: Octet QK, purified mAb.
Assay [6] deals with T1, human ADAMTS5. Kind of assay: ELISA on coated recombinant human ADAMTS5 (0.2 ug/ml), antibody in culture supernatant, anti human kappa peroxidase, OD 490 nm. As to the method:
A binding ELISA was carried out to test the binding of the expressed antibodies in cell culture supernatant to recombinant ADAMTS5. ELISA plates were coated with recombinant human ADAMTS5 at 0.2 μg/ml and blocked with blocking solution (4% BSA in Tris buffered saline). Various dilutions of the tissue culture supernatants were added and the plate was incubated for 1 hour at room temperature before washing in TBST. Binding was detected by the addition of a peroxidase labelled anti human kappa light chain antibody (Sigma A7164) at a dilution of 1/1000 in blocking solution. The plate was incubated for 1 hour at room temp before washing in TBST. The plate was developed by addition of OPD substrate (Sigma P9187) and colour development stopped by addition of 2M H₂SO₄. Absorbance was measured at 490 nm with a plate reader and the mean absorbance plotted against concentration.
Background: In an ELISA, binding on a coated surface is turned into a signal by an enzyme label.

Assay [7] has as its target T1, human ADAMTS5. Kind of assay: Biacore T100, CHO-expressed mAb captured on Protein A, ADAMTS5 (R&D 2198-AD) 0.0625-64 nM, 1:1 fit. As to the method: (§1) Protein A was immobilized on a CM5 biosensor chip by primary amine coupling. This surface was used to capture the Fc disabled anti-ADAMTS5 antibody, 12F4 H4L0 IgG1m(AA) (BPC1661), (CHO and HEK expressed material). Recombinant human ADAMTS5 (R&D Systems 2198-AD) was used as the analyte at 64 nM, 16 nM, 4 nM, 1 nM, 0.25 nM and 0.0625 nM, with a buffer injection (i.e. 0 nM) used to double reference the binding curves. Regeneration of the capture surface (i.e. removal of the captured antibody) was with 50 mM NaOH. The running buffer was HBS-EP and the run was carried out on the Biacore T100 at 25° C. The data was fitted to the 1:1 model inherent to the machines analysis software.

Assay [8] has as its target T1, human ADAMTS5. Kind of assay: Biacore T100, HEK-expressed mAb captured on Protein A, ADAMTS5 (R&D 2198-AD) 0.0625-64 nM, 1:1 fit. As to the method:
as §1

Assay [9] concerns the target T1, human ADAMTS5. Kind of assay: Biacore, mAb from culture supernatant captured on anti-human IgG, ADAMTS5 (R&D 2198-AD) at 64 nM, 1:1 fit.
Assay [10] addresses T1, human ADAMTS5. Kind of assay: Biacore, mAb down, no avidity; Biacore, mAb down, no avidity.

Human MMP3, sequence (P08254 18-477 limits assumed): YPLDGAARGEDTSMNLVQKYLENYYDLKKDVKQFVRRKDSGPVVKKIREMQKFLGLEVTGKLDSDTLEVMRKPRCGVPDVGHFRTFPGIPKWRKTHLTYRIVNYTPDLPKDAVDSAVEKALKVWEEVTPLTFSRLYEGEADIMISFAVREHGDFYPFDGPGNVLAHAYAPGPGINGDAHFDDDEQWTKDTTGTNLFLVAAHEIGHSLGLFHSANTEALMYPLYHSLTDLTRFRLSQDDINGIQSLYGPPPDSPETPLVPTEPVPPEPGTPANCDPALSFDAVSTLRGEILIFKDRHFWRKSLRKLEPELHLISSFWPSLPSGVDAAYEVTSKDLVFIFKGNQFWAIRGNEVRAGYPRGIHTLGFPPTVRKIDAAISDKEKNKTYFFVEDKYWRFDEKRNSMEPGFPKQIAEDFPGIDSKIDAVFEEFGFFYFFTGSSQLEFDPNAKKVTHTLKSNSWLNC
Human MMP9, sequence (P14780 20-707 limits assumed): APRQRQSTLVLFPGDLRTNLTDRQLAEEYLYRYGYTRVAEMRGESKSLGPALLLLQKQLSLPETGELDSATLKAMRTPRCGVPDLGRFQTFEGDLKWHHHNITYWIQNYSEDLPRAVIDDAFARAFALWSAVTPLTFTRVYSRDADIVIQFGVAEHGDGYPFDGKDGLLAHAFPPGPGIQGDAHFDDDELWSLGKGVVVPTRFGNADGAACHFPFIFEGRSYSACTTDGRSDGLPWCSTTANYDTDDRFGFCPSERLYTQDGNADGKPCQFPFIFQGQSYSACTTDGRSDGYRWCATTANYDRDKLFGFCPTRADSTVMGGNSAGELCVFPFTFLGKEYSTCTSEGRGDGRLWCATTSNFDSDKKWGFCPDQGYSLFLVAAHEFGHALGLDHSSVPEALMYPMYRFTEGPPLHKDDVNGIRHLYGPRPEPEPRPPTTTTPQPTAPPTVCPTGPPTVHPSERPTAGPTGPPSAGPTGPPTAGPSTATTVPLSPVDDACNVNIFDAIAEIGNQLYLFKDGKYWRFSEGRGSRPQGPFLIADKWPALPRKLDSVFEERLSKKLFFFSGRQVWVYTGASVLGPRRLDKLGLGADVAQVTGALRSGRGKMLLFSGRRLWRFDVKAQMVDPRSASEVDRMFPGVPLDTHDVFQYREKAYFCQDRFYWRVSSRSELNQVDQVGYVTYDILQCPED

B1: 7B4.1E11 (antibody, IgG1, V domains shown)
VH: EVKLEESGGGLVQPGGSMKLSCAASGFTSSDAWMDWVRQSPEKGLEWVAEIRNKANNHARHYAESVKGRFTISRDDSKSSVYLQMNSLRAEDSGIYYCTRTYYYGSSYGYCDVWGTGTTVTVSS
VL: DIQMTQSPASLSASVGETVTITCRTSENIYSYLAWYQQKQGKSPQLLVYNAKTLAEGVPSRFSGSGSGTQFSLKINSLQPEDFGSYSCQHHYGTPWTFGGGTKLEIKR
notes: also called Murine 7B4.1E11
As for B1, the Kd stood at 0.28 nM with human ADAMTS5 [1], 0.483 nM with human ADAMTS5 [2], 0.899 nM in the assay with human ADAMTS5 [3] and 0.358 nM with human ADAMTS5 [5]. The binding result in the assay with Human MMP1, with Human ADAMTS1, in the assay with Human ADAMTS13, with Human MMP3, with Human MMP13 and in the assay with Human MMP9 was “no binding” each time. Besides, the binding result in the assay with Human ADAMTS4 was “no binding”. Further, in the assay with human ADAMTS5 [4], the “Aggrecan Substrate Cleavage Neutralization IC50” value turned out to be 0.08 nM.

B2: BPC1655 (antibody, human IgG1, kappa, V domains shown)
VH: EVQLLESGGGLVQPGGSLRLSCAASGFTFSDAWMDWVRQAPGKGLEWVSEIRHKANDHAIFYDESVKGRFTISRDNSKNTLYLQMNSLRAEDTAVYYCAKPFAYWGQGTLVTVSS
VL: DIQMTQSPSSLSASVGDRVTITCKASQSVGTTIVWYQQKPGKAPKLLIYSASNRHTGVPSRFSGSGSGTDFTLTISSLQPEDFATYYCQQYTSYPFTFGQGTKLEIKR
notes: Humanized, human gamma 1 / kappa; also called 12F4 H0L0
Turning to B2, the binding result with human ADAMTS5 [6] was “no binding (tested: about 2.5 ug/ml)”.

B3: BPC1661 (antibody, human IgG1, kappa)
heavy: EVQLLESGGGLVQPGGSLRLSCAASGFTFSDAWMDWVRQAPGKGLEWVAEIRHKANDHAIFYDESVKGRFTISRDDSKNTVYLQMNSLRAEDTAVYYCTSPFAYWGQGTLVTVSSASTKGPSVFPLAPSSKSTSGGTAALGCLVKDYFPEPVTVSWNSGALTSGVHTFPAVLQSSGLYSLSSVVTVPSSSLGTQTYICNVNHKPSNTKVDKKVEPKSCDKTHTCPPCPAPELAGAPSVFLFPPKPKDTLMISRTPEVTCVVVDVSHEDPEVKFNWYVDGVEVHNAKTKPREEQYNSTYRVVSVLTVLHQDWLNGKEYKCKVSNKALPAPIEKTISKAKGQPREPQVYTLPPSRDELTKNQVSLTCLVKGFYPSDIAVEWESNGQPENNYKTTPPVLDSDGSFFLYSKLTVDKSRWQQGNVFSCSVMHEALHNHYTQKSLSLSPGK
light: DIQMTQSPSSLSASVGDRVTITCKASQSVGTTIVWYQQKPGKAPKLLIYSASNRHTGVPSRFSGSGSGTDFTLTISSLQPEDFATYYCQQYTSYPFTFGQGTKLEIKRTVAAPSVFIFPPSDEQLKSGTASVVCLLNNFYPREAKVQWKVDNALQSGNSQESVTEQDSKDSTYSLSSTLTLSKADYEKHKVYACEVTHQGLSSPVTKSFNRGEC
notes: HEK- and CHO-expressed material was tested; also called 12F4 H4L0 IgG1m(AA); Fc disabled anti-ADAMTS5 antibody
Take B3: the Kd in the assay with human ADAMTS5 [7] was 0.07 nM; with human ADAMTS5 [8], 0.074 nM.

B4: BPC1659 (antibody, human IgG1, kappa)
heavy: not shown
light: B3 light
notes: Humanized, human gamma 1 wild type / kappa, with a fully functional Fc; also called 12F4 H4L0; 12F4 H4L0 IgG1 wt
As to B4, the values for the Kd with human ADAMTS5 [1], with human ADAMTS5 [2] and with human ADAMTS5 [9] were 0.0383 nM, 0.085 nM and 0.0848 nM, respectively. This molecule also came in with a koff with human ADAMTS5 [9] of 4.15e-05 s⁻¹. The kon with human ADAMTS5 [9] and with human ADAMTS5 [10] was 489000 M⁻¹ s⁻¹ each time.

In general, koff refers to the rate constant with which the complex falls apart. What is called kon is the second-order rate constant of association. High values mean faster complex formation, low ones slower complex formation.
